Series [1] has as its target T1, hSSB2-OB (NABP1 OB domain) (human, UniProt Q96AH0 1-132). The series is described as follows: EMSA; SPR: 20 mM Tris pH 7.0, 50 mM NaCl, 2 mM MgCl2, 0.01% P20, 2 mM DTT; EMSA: 20 mM Tris pH 7.5, 100 mM NaCl, 1 mM DTT, 100 µg/mL BSA, 37 °C; agarose shift: 10 mM. The following applies: protein: recombinant, tags: GST tag (pGEX-6P) removed by HRV3C protease, label: 32P.

Series [2] concerns the target T1, hSSB2-OB (NABP1 OB domain). The series is described as follows: SPR competition; competes with immobilised biotinylated wild-type ssDNA; value only in figure; 2 mM MgCl2; SPR: 20 mM Tris pH 7.0, 50 mM NaCl, 2 mM MgCl2, 0.01% P20, 2 mM DTT; EMSA: 20 mM Tris pH 7.5, 100 mM NaCl, 1 mM DTT, 100 µg/mL BSA, 37 °C; agarose shift: 10 mM. Particulars: protein: recombinant; tags: GST tag (pGEX-6P) removed by HRV3C protease; single strand. In general terms: In EMSA bound probe runs differently from free probe, usually more slowly.

Series [3] concerns the target T1, hSSB2-OB (NABP1 OB domain). The series is described as follows: SPR competition; almost same affinity as undamaged GATTGC; value only in figure; 2 mM MgCl2; SPR: 20 mM Tris pH 7.0, 50 mM NaCl, 2 mM MgCl2, 0.01% P20, 2 mM DTT; EMSA: 20 mM Tris pH 7.5, 100 mM NaCl, 1 mM DTT, 100 µg/mL BSA, 37 °C; agarose shift: 10 mM. The following applies: protein: recombinant; tags: GST tag (pGEX-6P) removed by HRV3C protease; single strand.

Series [4] has as its target T1, hSSB2-OB (NABP1 OB domain). The series is described as follows: SPR competition; competes with immobilised biotinylated wild-type ssDNA; 2 mM MgCl2; SPR: 20 mM Tris pH 7.0, 50 mM NaCl, 2 mM MgCl2, 0.01% P20, 2 mM DTT; EMSA: 20 mM Tris pH 7.5, 100 mM NaCl, 1 mM DTT, 100 µg/mL BSA, 37 °C; agarose shift: 10 mM. Particulars: protein: recombinant; tags: GST tag (pGEX-6P) removed by HRV3C protease; blunt, central 2-nt mismatch (TT opposite CC; S3 positions 11-12).

T1 sequence (Q96AH0 1-132): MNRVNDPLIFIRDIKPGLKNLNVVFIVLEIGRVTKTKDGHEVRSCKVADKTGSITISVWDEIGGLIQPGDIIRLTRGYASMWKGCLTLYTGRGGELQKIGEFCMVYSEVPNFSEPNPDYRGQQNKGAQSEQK

In the case of CCTCGAGGGATCCGTCCTAGCAAGCCGCTGCTACCGGAAGCTTCTGGACC (ssDNA) [50mer ssDNA (EMSA)], in series [1] (single strand), the binding result is reported as “binds”.

B1: 50 bp dsDNA (EMSA) (dsDNA)
DNA 1: CCTCGAGGGATCCGTCCTAGCAAGCCGCTGCTACCGGAAGCTTCTGGACC
DNA 2: GGTCCAGAAGCTTCCGGTAGCAGCGGCTTGCTAGGACGGATCCCTCGAGG
For the molecule B1, in series [1] (blunt), the binding result is “no binding”. Turning to GATTGC (ssDNA) [6mer GATTGC wild-type], the binding result in series [2] is recorded as “binds”. On to GATTGC (ssDNA, cyclobutane pyrimidine dimer between T3 and T4) [6mer GATTGC with CPD], for which the binding result in series [3] is on record as “binds”.

B2: 23mer duplex with 2-nt bubble (dsDNA)
DNA 1: CGAACGATCATTACTAGCTCCAA
DNA 2: TTGGAGCTAGTCCTGATCGTTCG
As a reminder, the Ki is a measure of affinity in units of concentration, obtained from inhibition or displacement. As for B2, the Ki in series [4] is 1000 nM.

Values taken from article PMC8511049, “hSSB2 (NABP1) is required for the recruitment of RPA during the cellular response to DNA UV damage”.
